Patent publication US20200016237A1

Key:
[1] = biological target: Neogenin on murine brain-derived endothelial cells (b.end3) (mouse) (UniProt P97798); experiment: cell-based or functional assay
[2] = biological target: Alkaline Phosphatase-tagged extracellular domains of Neogenin (Ec-Neogenin-AP); experiment: plate competition binding assay, His-tagged protein coated, AP-tagged protein detected with pNPP at 405 nm; sRGMa pre-incubated with Ec-Neogenin-AP

Chain of Neogenin on murine brain-derived endothelial cells (b.end3) (mouse) (P97798 37-1492): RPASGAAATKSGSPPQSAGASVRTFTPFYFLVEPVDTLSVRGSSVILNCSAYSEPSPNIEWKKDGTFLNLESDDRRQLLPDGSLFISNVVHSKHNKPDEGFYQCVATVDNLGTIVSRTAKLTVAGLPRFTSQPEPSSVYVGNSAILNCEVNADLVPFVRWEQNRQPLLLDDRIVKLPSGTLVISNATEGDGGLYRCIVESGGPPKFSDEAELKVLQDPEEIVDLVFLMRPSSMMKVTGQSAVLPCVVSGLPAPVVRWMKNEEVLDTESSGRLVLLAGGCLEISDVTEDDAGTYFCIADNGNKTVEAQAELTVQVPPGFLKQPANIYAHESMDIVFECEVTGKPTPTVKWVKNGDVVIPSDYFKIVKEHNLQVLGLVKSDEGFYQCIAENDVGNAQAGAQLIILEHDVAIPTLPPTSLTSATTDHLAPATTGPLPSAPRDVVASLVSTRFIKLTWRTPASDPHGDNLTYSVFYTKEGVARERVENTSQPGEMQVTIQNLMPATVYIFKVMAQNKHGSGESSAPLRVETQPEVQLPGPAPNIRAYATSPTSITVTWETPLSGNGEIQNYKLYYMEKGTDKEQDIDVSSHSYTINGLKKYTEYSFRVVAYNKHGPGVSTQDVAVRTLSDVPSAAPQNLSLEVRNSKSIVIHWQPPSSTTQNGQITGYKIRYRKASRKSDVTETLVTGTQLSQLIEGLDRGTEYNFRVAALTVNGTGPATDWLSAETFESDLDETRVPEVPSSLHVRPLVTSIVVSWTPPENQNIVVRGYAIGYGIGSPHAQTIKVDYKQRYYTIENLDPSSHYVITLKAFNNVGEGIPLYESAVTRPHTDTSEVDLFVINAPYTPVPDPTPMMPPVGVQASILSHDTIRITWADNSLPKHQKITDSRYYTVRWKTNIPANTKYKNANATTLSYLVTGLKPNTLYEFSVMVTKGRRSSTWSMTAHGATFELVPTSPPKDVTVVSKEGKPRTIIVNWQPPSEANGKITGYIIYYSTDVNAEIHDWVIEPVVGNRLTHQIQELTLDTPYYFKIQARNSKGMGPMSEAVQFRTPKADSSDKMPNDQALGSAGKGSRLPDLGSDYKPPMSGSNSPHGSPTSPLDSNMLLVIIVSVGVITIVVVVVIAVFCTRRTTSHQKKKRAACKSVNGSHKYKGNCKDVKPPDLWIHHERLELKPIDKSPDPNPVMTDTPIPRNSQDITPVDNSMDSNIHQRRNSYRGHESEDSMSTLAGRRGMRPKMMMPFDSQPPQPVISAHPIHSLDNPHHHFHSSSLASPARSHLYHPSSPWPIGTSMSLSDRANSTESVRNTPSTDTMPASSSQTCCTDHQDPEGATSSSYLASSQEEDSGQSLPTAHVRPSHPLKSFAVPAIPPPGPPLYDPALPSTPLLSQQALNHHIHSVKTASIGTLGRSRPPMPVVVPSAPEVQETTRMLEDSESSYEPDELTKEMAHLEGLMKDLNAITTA

## soluble RGMa (sRGMa), mouse, His tag replacing the GPI anchor (from UniProt Q6PCX7 170-427) (ligand)
[1]
  fold decrease in Claudin 5 levels in b.End3 cells (Western blot): 2 fold
[2]
  fold reduction of binding intensity of RGMc to Neogenin against BSA control: 3 fold
